According to patent publication US20040146507A1 (Genentech, published 2004):
Where a chain is given by its changes, count along the chain named. Read-outs that look alike come from different tables or passages of the source.

What was measured:
human CD11a [1] = molecular target: T1, human CD11a (human, UniProt P20701 26-1170); experiment: FACScan, Jurkat cells
T1 construct: whole, on cells; On Jurkat T-cells or human peripheral blood mononuclear cells, as part of LFA-1; also called CD11a on Jurkat cells; alpha subunit of LFA-1
Experimental: (§1) Aliquots of 10⁶ Jurkat T-cells were incubated with serial dilutions of humanized and control antibodies in PBS-0.1% BSA-10 mM sodium azide for 45 min at 4° C. The cells were washed and then incubated in fluorescein-conjugated goat anti-human F(ab′)₂ (Organon Teknika, Westchester, Pa.) for 45 min at 4° C. Cells were washed and analysed on a FACScan (Becton Dickinson, Mountain View, Calif.). 8×10³ cells were acquired by list mode and gated by forward light scatter versus side light scatter, thereby excluding dead cells and debris.

rhesus CD11a [2] = molecular target: T2, rhesus CD11a (rhesus, UniProt H9Z8N3 26-1169); experiment: rhesus PBL binding
T2 construct: whole, on cells; On rhesus peripheral blood lymphocytes or leukocytes; also called rhCD11a
T2 sequence: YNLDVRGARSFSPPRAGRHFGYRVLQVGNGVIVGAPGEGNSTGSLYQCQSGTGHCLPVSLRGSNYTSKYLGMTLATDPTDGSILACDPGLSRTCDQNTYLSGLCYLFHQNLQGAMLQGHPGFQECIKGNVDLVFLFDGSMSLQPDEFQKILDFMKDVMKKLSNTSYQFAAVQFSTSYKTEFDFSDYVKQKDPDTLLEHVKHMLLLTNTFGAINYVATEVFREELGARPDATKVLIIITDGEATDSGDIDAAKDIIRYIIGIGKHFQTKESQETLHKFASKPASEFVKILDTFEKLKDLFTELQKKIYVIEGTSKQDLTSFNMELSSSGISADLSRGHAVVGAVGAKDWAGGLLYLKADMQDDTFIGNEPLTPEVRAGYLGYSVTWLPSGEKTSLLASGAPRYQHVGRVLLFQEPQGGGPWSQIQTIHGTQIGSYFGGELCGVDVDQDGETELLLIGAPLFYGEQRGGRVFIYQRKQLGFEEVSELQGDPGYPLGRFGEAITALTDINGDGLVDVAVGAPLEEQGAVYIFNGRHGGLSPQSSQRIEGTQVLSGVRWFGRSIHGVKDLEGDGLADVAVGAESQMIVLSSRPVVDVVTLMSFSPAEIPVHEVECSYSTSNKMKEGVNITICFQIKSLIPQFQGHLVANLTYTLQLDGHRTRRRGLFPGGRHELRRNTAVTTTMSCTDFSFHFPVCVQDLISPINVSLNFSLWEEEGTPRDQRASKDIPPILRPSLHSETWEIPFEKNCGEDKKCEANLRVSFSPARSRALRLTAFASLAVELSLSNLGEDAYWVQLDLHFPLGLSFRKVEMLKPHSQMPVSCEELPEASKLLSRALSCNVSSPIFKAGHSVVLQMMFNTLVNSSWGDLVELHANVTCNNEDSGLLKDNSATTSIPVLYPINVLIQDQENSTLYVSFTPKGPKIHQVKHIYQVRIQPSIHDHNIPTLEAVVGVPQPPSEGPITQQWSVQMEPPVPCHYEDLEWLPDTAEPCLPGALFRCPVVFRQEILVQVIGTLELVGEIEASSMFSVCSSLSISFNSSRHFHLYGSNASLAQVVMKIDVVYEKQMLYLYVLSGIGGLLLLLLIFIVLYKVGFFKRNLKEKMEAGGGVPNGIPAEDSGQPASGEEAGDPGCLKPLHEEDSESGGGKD

human CD11a [3] = molecular target: T1, human CD11a; experiment: FACScan, Jurkat cells; remark: listed apart in the source
Experimental: as §1
(§2) To determine which CDR residues were involved in binding to human CD11a an alanine-scan (Cunningham et al., Science 244:1081 (1989)) was performed on the CDR residues of HuIgG1. Each mutant was tested for binding to CD11a on Jurkat cells. In the light chain only CDR-L3 contributes to binding.
Target sequence in this assay (P20701 26-1170): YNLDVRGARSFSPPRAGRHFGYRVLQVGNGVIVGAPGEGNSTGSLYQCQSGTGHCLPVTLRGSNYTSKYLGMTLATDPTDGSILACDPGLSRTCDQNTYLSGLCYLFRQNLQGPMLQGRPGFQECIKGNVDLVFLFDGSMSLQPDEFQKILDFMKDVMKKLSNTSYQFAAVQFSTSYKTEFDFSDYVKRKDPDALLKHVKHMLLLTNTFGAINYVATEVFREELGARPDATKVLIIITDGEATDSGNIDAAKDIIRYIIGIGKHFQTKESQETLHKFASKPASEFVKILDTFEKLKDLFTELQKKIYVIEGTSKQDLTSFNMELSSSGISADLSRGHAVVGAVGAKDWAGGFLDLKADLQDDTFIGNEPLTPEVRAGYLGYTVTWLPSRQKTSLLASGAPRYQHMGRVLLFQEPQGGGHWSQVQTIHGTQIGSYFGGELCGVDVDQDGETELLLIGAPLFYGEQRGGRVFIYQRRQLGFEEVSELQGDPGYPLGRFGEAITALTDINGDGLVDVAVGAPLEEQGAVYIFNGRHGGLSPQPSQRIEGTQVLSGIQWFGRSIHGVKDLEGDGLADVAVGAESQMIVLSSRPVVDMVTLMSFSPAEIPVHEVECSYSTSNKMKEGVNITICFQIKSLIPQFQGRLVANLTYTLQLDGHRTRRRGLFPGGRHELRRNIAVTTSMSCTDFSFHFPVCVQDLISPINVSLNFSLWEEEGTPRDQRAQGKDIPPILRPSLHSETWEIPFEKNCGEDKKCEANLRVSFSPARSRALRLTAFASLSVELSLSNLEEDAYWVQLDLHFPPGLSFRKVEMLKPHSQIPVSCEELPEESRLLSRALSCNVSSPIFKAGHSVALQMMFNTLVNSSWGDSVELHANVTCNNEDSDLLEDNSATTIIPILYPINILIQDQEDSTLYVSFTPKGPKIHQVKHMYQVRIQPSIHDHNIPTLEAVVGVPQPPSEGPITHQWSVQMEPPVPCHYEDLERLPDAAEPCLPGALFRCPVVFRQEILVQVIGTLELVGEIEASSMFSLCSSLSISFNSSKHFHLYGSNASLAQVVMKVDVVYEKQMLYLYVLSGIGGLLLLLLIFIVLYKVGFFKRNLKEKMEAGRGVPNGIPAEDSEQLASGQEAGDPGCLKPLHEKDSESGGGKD

rhesus CD11a [4] = molecular target: T2, rhesus CD11a; experiment: rhesus PBL binding; remark: listed apart in the source
rhesus CD11a [5] = molecular target: T2, rhesus CD11a; experiment: rhesus PBL binding; remark: listed apart in the source
human CD11a [6] = molecular target: T1, human CD11a; experiment: FACScan, Jurkat cells; remark: listed apart in the source
Experimental: as §1, §2

rhesus CD11a [7] = molecular target: T2, rhesus CD11a; experiment: rhesus PBL binding; end of range assigned by the printed EC50s
rhesus CD11a [8] = molecular target: T2, rhesus CD11a; experiment: rhesus PBL binding; remark: listed apart in the source
human CD11a [9] = molecular target: T1, human CD11a; experiment: cell-based or functional assay

B1: HuIgG1 mutant AspH54Ala (antibody, V domains shown)
VH: EVQLVESGGGLVQPGGSLRLSCAASGYSFTGHWMNWVRQAPGKGLEWVGMIHPSASETRYNQKFKDRFTISVDKSKNTLYLQMNSLRAEDTAVYYCARGIYFYGTTYFDYWGQGTLVTVSS
VL: DIQMTQSPSSLSASVGDRVTITCRASKTISKYLAWYQQKPGKAPKLLIYSGSTLQSGVPSRFSGSGSGTDFTLTISSLQPEDFATYYCQQHNEYPLTFGQGTKVEIK
notes: HuIgG1 mutant, human IgG1; Kabat numbering
Mutant EC50/HuIgG1 EC50 (human CD11a [1]): 147 ratio
Mutant EC50/HuIgG1 EC50 (rhesus CD11a [2]): 0.3 ratio
Var.EC50/HuIgG1 EC50 (human CD11a [3]): 147 ratio
Var.EC50/HuIgG1 EC50 (rhesus CD11a [4]): 0.3 ratio
fold improvement in binding over HuIgG1 (rhesus CD11a [5]): 3 fold

B2: humanized MHM24 F(ab)-8 (Fab, V domains shown)
VH: B1 VH with A55D
VL: DIQMTQSPSSLSASVGDRVTITCRASKTISKYLAWYQQKPGKAPKLLIYSGSTLQSGVPSRFSGSGSGTDFTLTISSLQPEDFATYYCQQHNEYPLTFGQGTKVEIKR
notes: F(ab) from E. coli with human kappa CL and CH1
EC50 F(ab)/EC50 F(ab)-2 (human CD11a [1]): 0.004 ratio

B3: HuIgG1 mutant H2C11 (antibody, V domains shown)
VH: B1 VH with H52A, S54A, A55S, E57N
VL: B2 VL
Var.EC50/HuIgG1 EC50 (human CD11a [6]): 24.9 ratio
fold improvement over EC50 of HuIgG1 for rhesus CD11a (rhesus CD11a [7]): 240 to 415 fold
fold weaker than EC50 of HuIgG1 for human CD11a (rhesus CD11a [7]): 3 to 5 fold
Var.EC50/HuIgG1 EC50 (rhesus CD11a [8]): 0.002 ratio
EC50 (rhesus CD11a [5]): 0.11 nM

B4: HuIgG1 mutant AspH54Asn (antibody, V domains shown)
VH: B1 VH with A55N
VL: B1 VL
notes: as for B1
Mutant EC50/HuIgG1 EC50 (human CD11a [1]): 26 ratio
Mutant EC50/HuIgG1 EC50 (rhesus CD11a [2]): 0.1 ratio
fold improvement in binding over HuIgG1 (rhesus CD11a [5]): 10 fold

B5: HuIgG1 mutant H2 (antibody, V domains shown)
VH: B1 VH with H52A, S54A, A55D, S56A
VL: B1 VL
notes: as for B1
Var.EC50/HuIgG1 EC50 (human CD11a [3]): 14.1 ratio
Var.EC50/HuIgG1 EC50 (rhesus CD11a [4]): 0.055 ratio
fold better binding than HuIgG1 (rhesus CD11a [5]): 18 fold

B6: HuIgG1 mutant AspH54Lys (antibody, V domains shown)
VH: B1 VH with A55K
VL: B1 VL
notes: HuIgG1 mutant, human IgG1; Kabat numbering; also called AspH54 change to Lys
Mutant EC50/HuIgG1 EC50 (rhesus CD11a [2]): 3.8 ratio

B7: HuIgG1 mutant SerH55Gln (antibody, V domains shown)
VH: B1 VH with A55D, S56Q
VL: B1 VL
notes: as for B1
Var.EC50/HuIgG1 EC50 (human CD11a [3]): 2.9 ratio
Var.EC50/HuIgG1 EC50 (rhesus CD11a [4]): 6.7 ratio

B8: humanized MHM24 F(ab)-3 (Fab, V domains shown)
VH: B1 VH with Y27F, A55D, F68A, K74N
VL: B1 VL with T53S, Q55E
notes: F(ab) from E. coli; F(ab)-2 plus PheH67Ala
EC50 F(ab)/EC50 F(ab)-2 (human CD11a [1]): 1.2 ratio

B9: HuIgG1 mutant AspH54Gln (antibody, V domains shown)
VH: B1 VH with A55Q
VL: B1 VL
notes: HuIgG1 mutant, human IgG1; Kabat numbering; also called AspH54 change to Gln
Mutant EC50/HuIgG1 EC50 (human CD11a [1]): 20 ratio
Mutant EC50/HuIgG1 EC50 (rhesus CD11a [2]): 4.4 ratio

B10: humanized MHM24 F(ab)-4 (Fab, V domains shown)
VH: B1 VH with Y27F, A55D, V72R, K74N
VL: B1 VL with T53S, Q55E
notes: F(ab) from E. coli; F(ab)-2 plus ValH71Arg
EC50 F(ab)/EC50 F(ab)-2 (human CD11a [1]): 2.9 ratio

B11: HuIgG1 mutant GluH56Ala (antibody, V domains shown)
VH: B1 VH with A55D, E57A
VL: B1 VL
notes: as for B1
Var.EC50/HuIgG1 EC50 (human CD11a [3]): 4 ratio
Var.EC50/HuIgG1 EC50 (rhesus CD11a [4]): 0.3 ratio
fold improvement in binding over HuIgG1 (rhesus CD11a [5]): 3 fold

B12: HuIgG1 mutant ThrH30Ala (antibody, V domains shown)
VH: B1 VH with T30A, A55D
VL: B1 VL
notes: as for B1
Var.EC50/HuIgG1 EC50 (human CD11a [3]): 1.7 ratio
Var.EC50/HuIgG1 EC50 (rhesus CD11a [4]): 1.3 ratio

B13: humanized MHM24 F(ab)-6 (Fab, V domains shown)
VH: B1 VH with Y27F, A55D, K76S, N77S
VL: B1 VL
notes: F(ab) from E. coli
EC50 F(ab)/EC50 F(ab)-2 (human CD11a [1]): 0.012 ratio
fold improvement in binding over F(ab)-5 (human CD11a [1]): 4 fold

B14: HuIgG1 mutant SerH55Ala (antibody, V domains shown)
VH: B1 VH with A55D, S56A
VL: B1 VL
notes: as for B1
Var.EC50/HuIgG1 EC50 (human CD11a [3]): 1.3 ratio
Var.EC50/HuIgG1 EC50 (rhesus CD11a [4]): 1.3 ratio

B15: humanized MHM24 F(ab)-7 (Fab, V domains shown)
VH: B1 VH with A55D, K76S, N77S
VL: B1 VL
notes: F(ab) from E. coli
EC50 F(ab)/EC50 F(ab)-2 (human CD11a [1]): 0.004 ratio
fold improvement in binding over F(ab)-6 (human CD11a [1]): 3 fold

B16: HuIgG1 mutant SerH53Ala (antibody, V domains shown)
VH: B1 VH with S54A, A55D
VL: B1 VL
notes: as for B1
Var.EC50/HuIgG1 EC50 (human CD11a [3]): 1.8 ratio
Var.EC50/HuIgG1 EC50 (rhesus CD11a [4]): 0.7 ratio

B17: HuIgG1 mutant H2A1 (antibody, V domains shown)
VH: B1 VH with H52A, S54A, A55D
VL: B1 VL
notes: as for B1
Var.EC50/HuIgG1 EC50 (human CD11a [6]): 10.8 ratio
Var.EC50/HuIgG1 EC50 (rhesus CD11a [8]): 0.013 ratio
Var.EC50/HuIgG1 EC50 (human CD11a [3]): 10.8 ratio
Var.EC50/HuIgG1 EC50 (rhesus CD11a [4]): 0.013 ratio
fold improvement in binding over HuIgG1 (rhesus CD11a [5]): 77 fold

B18: humanized MHM24 F(ab)-2 (Fab, V domains shown)
VH: B1 VH with Y27F, A55D, K74N
VL: B1 VL with T53S, Q55E
notes: F(ab) from E. coli
EC50 (human CD11a [1]): 0.771 µg/mL
EC50 F(ab)/EC50 F(ab)-2 (human CD11a [1]): 1 ratio
fold weaker EC50 than chimeric IgG1 (human CD11a [1]): 148 fold

B19: HuIgG1 mutant AspH54Glu (antibody, V domains shown)
VH: B1 VH with A55E
VL: B1 VL
notes: HuIgG1 mutant, human IgG1; Kabat numbering; also called AspH54 change to Glu
Mutant EC50/HuIgG1 EC50 (human CD11a [1]): 16 ratio

B20: HuIgG1 mutant AspH54Ser (antibody, V domains shown)
VH: B1 VH with A55S
VL: B1 VL
notes: HuIgG1 mutant, human IgG1; Kabat numbering; also called AspH54 change to Ser
Mutant EC50/HuIgG1 EC50 (rhesus CD11a [2]): 0.9 ratio

B21: humanized MHM24 F(ab)-5 (Fab, V domains shown)
VH: B1 VH with Y27F, A55D, K76S, N77S
VL: B1 VL with T53S, Q55E
notes: F(ab) from E. coli
EC50 F(ab)/EC50 F(ab)-2 (human CD11a [1]): 0.043 ratio
fold improvement in binding over F(ab)-2 (human CD11a [1]): 23 fold

B22: chimeric MHM24 IgG1 (antibody, V domains shown)
VH: EVQLQQPGAELMRPGASVKLSCKASGYSFTGHWMNWVRQRPGQGLEWIGMIHPSDSETRLNQKFKDKATLTVDKSSSSAYMQLSSPTSEDSAVYYCARGIYFYGTTYFDYWGQGTTLTVSS
VL: DVQITQSPSYLAASPGETISINCRASKTISKYLAWYQEKPGKTNKLLIYSGSTLQSGIPSRFSGSGSGTDFTLTISSLEPEDFAMYYCQQHNEYPLTFGTGTKLELKR
notes: Murine VL and VH fused to human constant light and heavy (IgG1) chains; also called chIgG1; chimeric IgG1
EC50 (human CD11a [1]): 0.0052 µg/mL
EC50 F(ab)/EC50 F(ab)-2 (human CD11a [1]): 0.006 ratio
IC50, blocking of cell adhesion, Jurkat: HuK (human CD11a [9]): 0.1 nM
